B1: rhHAPLN1: recombinant human HAPLN1 protein of SEQ ID NO: 1 produced in CHO-K1 cells, stabilized in acetic acid buffer, sucrose, PS80, pH 5.0 (protein, listed as Homo sapiens)
chain: MKSLLLLVLISICWADHLSDNYTLDHDRAIHIQAENGPHLLVEAEQAKVFSHRGGNVTLPCKFYRDPTAFGSGIHKIRIKWTKLTSDYLKEVDVFVSMGYHKKTYGGYQGRVFLKGGSDSDASLVITDLTLEDYGRYKCEVIEGLEDDTVVVALDLQGVVFPYFPRLGRYNLNFHEAQQACLDQDAVIASFDQLYDAWRGGLDWCNAGWLSDGSVQYPITKPREPCGGQNTVPGVRNYGFWDKDKSRYDVFCFTSNFNGRFYYLIHPTKLTYDEAVQACLNDGAQIAKVGQIFAAWKILGYDRCDAGWLADGSVRYPISRPRRRCSPTEAAVRFVGFPDKKHKLYGVYCFRAYN

How the values were obtained:
[1] = system: normal human lung fibroblast (NHLF); test: TGFβ1-induced fibrosis of normal human lung fibroblasts, αSMA western blot; assay type: cell-based
Protocol: (1) normal human lung fibroblasts (NHLF) cultured for 9 passages were seeded (1.0×10^5 cells/well) in a 6-well plate and incubated in FBM-2 (Fibroblast Growth Medium-2, CC-3131, Lonza) medium for 24 hours in an incubator at 37° C. 5% CO2. (2) After replacing with serum-free medium, the medium was incubated for 24 hours.
(3) In this regard, under conditions in which fibrosis was induced by treatment with TGFβ1 (10 ng/ml), each well of the plate was treated with the composition of the present disclosure with rhHAPLN1 protein content of 0, 3.1, 12.5, 25 and 100 ng/ml and 100 μg/mL and 200 μg/mL of pirfenidone (Selleckchem), respectively, and incubated for 24 hours.
(4) Afterwards, each sample was washed twice with phosphate buffered saline (PBS, pH 7.2), and then the expression level of αSMA, a marker for myofibroblasts, was confirmed by western blot.

[2] = system: human cardiac microvascular endothelial cell (HCMEC); test: TGFβ1-induced fibrosis of human cardiac microvascular endothelial cells, αSMA western blot; assay type: cell-based
Protocol: (1) Primary human cardiac microvascular endothelial cell (HCMEC; ScienCell, #6000) were seeded (5.7×10^4 cells/well) in a 6-well plate according to the experimental scheme of FIG. 4A and incubated in Endothelial cell medium (ScienCell) for 24 hours in an incubator at 37° C. 5% CO2.
(2) The plates were then treated with TGFβ1 (5 ng/ml) to induce fibrosis and incubated for 3 days.
(3) Afterwards, each well of the plate was then treated with the composition of the present disclosure at rhHAPLN1 protein content of 0, 3, 10, 30, and 100 ng/ml and pirfenidone 100 μg/mL and 200 μg/mL, respectively, and incubated for 3 days.
(4) Each sample was then treated with cell lysis buffer and harvested.
(5) Western blotting was performed on the samples. Here, anti-αSMA Ab (Abcam, ab7817), anti-GAPDH Ab (Santa Cruz, sc-32233) were used as primary antibodies and HRP-conjugated anti-mouse IgG Ab (CST, #7076) as secondary antibodies to confirm the protein expression levels of αSMA and GAPDH.

[3] = system: ischemia/reperfusion-induced kidney fibrosis; test: Ischemia/reperfusion kidney fibrosis mouse model; assay type: in vivo
Protocol: According to the experimental scheme of FIG. 14A, 8-week-old C57BL/6 male mice were subjected to pentobarbital (50 mg/kg BW, i.p.) anesthesia, a flank incision was made to induce ischemia, the kidneys were exposed, and blood flow was blocked for 25 minutes by clamping the bilateral renal pedicles using a non-traumatic microaneurysm clamp (Roboz Surgical Instruments). The clamps were then removed and the incisions were sutured. The sham-operation was performed in the same manner as the ischemia/reperfusion experiment, except for the blockage of blood flow.
One day after ischemia, blood urea nitrogen (BUN) was measured, and only mice whose value rose above about 98 mg/dL (specified as 100 mg/dl from now on) were grouped into experimental groups and the experiment was conducted. The experimental groups were administered various drugs, including the composition of the present disclosure, daily from day 7 after surgery, and the kidneys were harvested on day 14 for histologic and biochemical analysis.
In addition, blood was taken on day 7 after drug administration to measure BUN concentration, and 14 days later, blood and urine were taken to measure creatinine concentration in blood and urine and BUN concentration in blood. Additionally, creatinine clearance was calculated.
Biochemical analysis (evaluation of fibrosis index expression): To confirm the expression of αSMA in kidney tissue, western blot was performed using antibodies against αSMA.
To confirm the expression of αSMA in sham-operation (Sham) and ischemia/reperfusion (IR) mouse kidney tissue, samples from each experimental group were loaded onto a single gel, western blot was performed, and the density of each band was measured. Ponceau and GADPH were utilized as equal loading markers (FIG. 14B). Where SV; sham-vehicle, SB; sham-rhHAPLN1-dissolving solution, IRV; IR-vehicle, IRP; IR-pirfenidone, IRA; IR-composition of the present disclosure (rhHAPLN1) A, IRB; IR-composition of the present disclosure (rhHAPLN1) B, IRC; IR-composition of the present disclosure (rhHAPLN1) C, respectively, and more details are shown in Table 1 and Table 2 above. More specifically, the Sham-vehicle is a group in which only the rhHAPLNB1-free buffer solution was diluted in PBS and IP-injected into the Sham control group. Sham-rhHAPLN1-dissolving solution is a group in which rhHAPLN1 concentration B (0.02 mg/kg) was diluted and IP injected to confirm the effect of rhHAPLN1 under normal conditions. […] IR-pirfenidone is a group in which 300 mg/kg of pirfenidone was administered orally after induction of I/R fibrosis.
In addition, the fold change in expression level for IRV in relation to αSMA expression was graphed (FIG. 14C).
As part of the histological analysis of fibrosis, paraffin-fixed kidneys were cut into 3 μm sections, and Sirus red and PAS staining were performed on these slide sections to assess collagen expression and fibrotic lesions in the tissue, respectively (FIG. 14D). Where SV; sham-vehicle, SB; sham-rhHAPLN1-dissolving solution, IRV; IR-vehicle, IRP; IR-pirfenidone, IRA; IR-composition of the present disclosure (rhHAPLN1) concentration 0.1 mg/kg, IRB; IR- the composition of the present disclosure (rhHAPLN1) at a concentration of 0.02 mg/kg, IRC; IR-the composition of the present disclosure (rhHAPLN1) at a concentration of 0.004 mg/kg, respectively.
In addition, in order to quantify the expression of collagen in the above-mentioned tissue, two of the outer medulla areas of the kidney were randomly imaged in the tissue staining photograph of FIG. 14D, and collagen-positive area was marked. Here, the red color is a sirus red positive signal (FIG. 14E).
As an experiment to analyze kidney function, blood was taken through a glass capillary tube with heparin added through the retroorbital vein plexus, and urine was obtained using a metabolic cage. Blood urea nitrogen and creatinine (plasma creatinine, PCr) concentrations were measured using Vitros250 (Johnson & Johnson). […]

[4] = IRP: pirfenidone 300 mg/kg B.W oral
[5] = all rhHAPLN1 contents, pirfenidone 100 and 200 μg/mL
[6] = IRA: rhHAPLN1 0.1 mg/kg B.W intraperitoneal
[7] = IRB: rhHAPLN1 0.02 mg/kg B.W intraperitoneal

Molecule | anti-fibrotic effect (expression level of αSMA compared to composition without rhHAPLN1) ([1]; pirfenidone 100 and 200 μg/mL) | expression level of αSMA compared to composition that does not include rhHAPLN1 protein ([2]; pirfenidone 100 and 200 μg/mL) | collagen positive area compared to IRV, quantified with i-Solution (FIG. 14F) [3, 4] | expression of collagen compared to IRV, blinded test of stained photographs (FIG. 14D) [3, 4] | expression level of αSMA compared to composition that does not include rhHAPLN1 protein (FIG. 5B) ([1]; TGFβ1 10 ng/ml, rhHAPLN1 3.1, 12.5, 25, 100 ng/ml, 24 hours) | anti-fibrotic action from αSMA western blot band, compared to pirfenidone (FIG. 5A) [1, 5] | anti-fibrotic efficacy relative to pirfenidone at 100 μg/mL and at 200 μg/mL ([1]; rhHAPLN1 12.5 ng/ml) | rhHAPLN1 protein content showing the most excellent anti-fibrotic efficacy ([1]; αSMA) | expression level of αSMA compared to composition that does not include rhHAPLN1 protein (FIG. 4C) ([2]; TGFβ1 5 ng/ml 3 days, then rhHAPLN1 3, 10, 30, 100 ng/ml 3 days) | anti-fibrotic action from αSMA western blot band, compared to pirfenidone (FIG. 4B) [2, 5] | rhHAPLN1 protein content showing the most excellent anti-fibrotic efficacy ([2]; αSMA) | collagen positive area compared to IRV, quantified with i-Solution (FIG. 14F) [3, 6] | expression of collagen compared to IRV, blinded test of stained photographs (FIG. 14D) [3, 6] | expression of αSMA in kidney compared to IRV (FIG. 14C) [3, 6] | collagen positive area compared to IRV, quantified with i-Solution (FIG. 14F) [3, 7] | expression of collagen compared to IRV, blinded test of stained photographs (FIG. 14D) [3, 7] | expression of αSMA in kidney compared to IRV (FIG. 14C) [3, 7] | expression of αSMA in kidney compared to IRV (FIG. 14C) ([3]; IRC: rhHAPLN1 0.004 mg/kg B.W intraperitoneal)
Cc1ccc(=O)n(-c2ccccc2)c1 [pirfenidone, reference compound] | no anti-fibrotic effect | higher than when treated with a composition that does not include rhHAPLN1 protein | weaker | weaker | – | – | – | – | – | – | – | – | – | – | – | – | – | –
B1 | – | – | – | – | significantly lower | much better anti-fibrotic action compared to pirfenidone | about twice as higher | 12.5 ng/mL | significantly lower | much better anti-fibrotic action compared to pirfenidone | 3 ng/mL | weaker | weaker | lowered to pirfenidone-like levels | weaker | weaker | lowered to pirfenidone-like levels | as high as the IRV
